Source: doi:10.1101/2025.10.15.682645 (bioRxiv, 2025)
Substitutions are numbered along the chain they refer to.

T1: GFP-GST-Rad54 S816DS817D (Saccharomyces cerevisiae, UniProt P32863 1-898, S816D | S817D)
T1 sequence (looked up): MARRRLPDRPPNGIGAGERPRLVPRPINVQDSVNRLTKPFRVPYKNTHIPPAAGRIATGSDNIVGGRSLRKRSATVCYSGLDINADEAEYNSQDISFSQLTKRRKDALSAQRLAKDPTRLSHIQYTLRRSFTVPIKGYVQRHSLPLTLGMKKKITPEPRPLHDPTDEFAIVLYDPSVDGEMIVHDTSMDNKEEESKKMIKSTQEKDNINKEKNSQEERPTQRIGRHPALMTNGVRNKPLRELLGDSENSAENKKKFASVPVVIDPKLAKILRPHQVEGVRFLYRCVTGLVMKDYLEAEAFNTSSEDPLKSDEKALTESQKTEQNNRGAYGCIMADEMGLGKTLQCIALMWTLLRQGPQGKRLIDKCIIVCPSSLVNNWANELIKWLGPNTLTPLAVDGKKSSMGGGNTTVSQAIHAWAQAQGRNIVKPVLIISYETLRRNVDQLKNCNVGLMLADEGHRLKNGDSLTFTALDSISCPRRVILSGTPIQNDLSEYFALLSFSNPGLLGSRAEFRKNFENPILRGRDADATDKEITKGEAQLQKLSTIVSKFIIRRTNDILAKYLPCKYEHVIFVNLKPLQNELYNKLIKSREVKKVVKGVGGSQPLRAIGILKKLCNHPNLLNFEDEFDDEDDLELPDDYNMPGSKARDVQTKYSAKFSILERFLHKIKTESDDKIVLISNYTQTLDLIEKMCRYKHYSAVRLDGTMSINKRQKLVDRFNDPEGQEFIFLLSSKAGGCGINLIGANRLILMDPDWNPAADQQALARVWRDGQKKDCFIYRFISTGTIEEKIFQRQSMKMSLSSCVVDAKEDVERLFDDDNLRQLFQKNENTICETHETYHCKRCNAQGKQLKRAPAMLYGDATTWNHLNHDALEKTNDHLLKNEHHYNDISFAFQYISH

B1: GFP-GST-Rad54 (enzyme, Saccharomyces cerevisiae, UniProt P32863 1-898, looked up)
chain: T1 sequence (looked up) with D816S, D817S
B2: GFP-GST-Rad54 S816AS817A (enzyme, Saccharomyces cerevisiae, UniProt P32863 1-898, looked up)
chain: T1 sequence (looked up) with D816A, D817A
B3: Rad51 (natural protein, UniProt P25454 1-400, looked up)
chain: MSQVQEQHISESQLQYGNGSLMSTVPADLSQSVVDGNGNGSSEDIEATNGSGDGGGLQEQAEAQGEMEDEAYDEAALGSFVPIEKLQVNGITMADVKKLRESGLHTAEAVAYAPRKDLLEIKGISEAKADKLLNEAARLVPMGFVTAADFHMRRSELICLTTGSKNLDTLLGGGVETGSITELFGEFRTGKSQLCHTLAVTCQIPLDIGGGEGKCLYIDTEGTFRPVRLVSIAQRFGLDPDDALNNVAYARAYNADHQLRLLDAAAQMMSESRFSLIVVDSVMALYRTDFSGRGELSARQMHLAKFMRALQRLADQFGVAVVVTNQVVAQVDGGMAFNPDPKKPIGGNIMAHSSTTRLGFKKGKGCQRLCKVVDSPCLPEAECVFAIYEDGVGDPREEDE

Columns and labels:
Assay in all cases: single-molecule DNA curtains
Rad51 = molecular target: B3
GFP-GST-Rad54 S816DS817D = molecular target: T1, GFP-GST-Rad54 S816DS817D
GFP-GST-Rad54 S816AS817A = molecular target: B2
GFP-GST-Rad54 = molecular target: B1

Row | fold change of Rad54 molecules per PSC, flow off against constant flow (Rad51) | binding result (GFP-GST-Rad54 S816DS817D) | binding result (GFP-GST-Rad54 S816AS817A) | binding result (GFP-GST-Rad54) | Binder
1 | 2 fold | – | – | – | B1
2 | 2 fold | – | – | – | B2
3 | – | binds | binds | binds | B3
